The data set can be described thus: soluble on expression in E. coli; label from the status in PepcDB or PDB records.
Consider “MGHHHHHHSHMTIYDQHMHTLYSFDSEAQLRDYLTQTKAPVVTTEHLEFDNPDDGGRDNLPDYARMKATQAALAEKFPNEFLLGIEAGYFAPADARFRQYLDNHDFDLTLLSFHHDGHYDYLDEQLITMPAKQQLEDYFERMLAGLKRFHDADVLAHFDYALRRFDITPDQLEAWGKPLLDQIFTIAVENDLALELNTKSMYRWGNAPLYDQAIAWYQAAGGHLFTIGSDAHEGPQYEANFADALAMLKRHGVKEIATYRQHQRTMVPIEPPVIDADNAY”, for which the “soluble on expression in E. coli” value is listed as “soluble”. The value for “MGHHHHHHSHMTSEQIPNRVLLFDGVCNLCNGAVQFIIKRDPDGLISFTSLQSETGQSLLKKSGLPTDRFDSFVFIEDGQVYTKSTAAIKVFRHLRGPWRLFVLFFAVPKPVRDMVYSFIAKNRYKWFGKKNECMLPSPSIKKRFLP” was “not soluble”; that for “MGHHHHHHSHMVALSNALSRVFGSLAGYKFPSFIQKGINALYVKIFKIDLSEFEPLENYRSLNALFTRSLKKERPFDKSPNICIAPCDALITECAFLDNDSALQIKGMPYKAHELVGEINPLSPSFFYANFYLSPKDYHHYHAPCDLEILEARYFAGKLLPVNKPSLHKNNNLFVGNERVTLVAKDIQGNRLYFVAVGALNVGKMRFNFDKNIQTNAKARFTQTYSYNPPIKVKKGDNLGNFEMGSTIVLFIQNTAFKDLKEKNVKFGESIGEFHAN” was “not soluble”. Consider “MGHHHHHHSHMVPSSAETGGTNYLAPGGLSDSQLLLEPGDRSHWCVVAYWEEKTRVGRLYCVQEPSLDIFYDLPQGNGFCLGQLNSDNKSQLVQKVRSKIGCGIQLTREVDGVWVYNRSSYPIFIKSATLDNPDSRTLLVHKVFPGFSIKAFDYEKAYSLQRPNDHEFMQQPWTGFTVQISFVKGWGQCYTRQFISSCPCWLEVIFNSR”, for which the “soluble on expression in E. coli” value is given as “not soluble”. As to “MGHHHHHHSHMVVLRAGKKTFLPALCRAFACRGCQLAPERGAERRDTAPSGVSRFCPPRKSCHDWIGPPDKYSNLRPVHFYIPENESPLEQKLRKLRQETQEWNQQFWANQNLTFSKEKEEFIHSRLKTKGLGLRTESGQKATLNAEEMADFYKEFLSKNFQKHMYYNRDWYKRNFAITFFMGKVALERIWNKLKQKQKKRSN”, the “soluble on expression in E. coli” value is given as “not soluble”. For the sequence “MGHHHHHHSHMYKFCANALKVILSLRGGVKVYNKENLPADSGFVIACTHSGWVDVITLGVGILPYQIHYMAKKELFQNKWIGSFLKKIHAFPVDRENPGPSSIKTPIKLLKEGEIVGIFPSGTRTSEDVPLKRGAVTIAQMGKAPLVPAAYQGPSSGKELFKKGKMKLIIGEPLHQADFAHLPSKERLAAMTEALNQRIKELENKLDQL”, the “soluble on expression in E. coli” value was “soluble”. For “MGHHHHHHSHNQYPAELMRRFELYFQGPSSNKPRVIREVRADSVGKLVTVRGIVTRVSEVKPKMVVATYTCDQCGAETYQPIQSPTFMPLIMCPSQECQTNRSGGRLYLQTRGSRFIKFQEMKMQEHSDQVPVGNIPRSITVLVEGENTRIAQPGDHVSVTGIFLPILRTGFRQVVQGLLSETYLEAHRIVKMNKSEDDESGAGELTREELRQIAEEDFYEKLAASIAP”, the “soluble on expression in E. coli” value is on record as “not soluble”. Then “MGHHHHHHSHPRNSCSLHYIHPYQPNEYLKALVAVGEICQDYDSDKMFPAFGFGARIPPEYTVSHDFAINFNEDNPECAGIQGVVEAYQSCLPKLQLYGPTNIAPIIQKVAKSASEETNTKEASQYFILLILTDGVITDMADTREAIVHASHLPMSVIIVGVGNADFSDMQMLDGDDGILRSPKGEPVLRDIVQFVPFRNFKHASPAALAKSVLAEVPNQVVDYYNGKGIKPKCSSEMYESSRTLAP”, with “not soluble”. As to “MGHHHHHHSHQELASKRVDIQNKRFYLDVKQNAKGRFLKIAEVGAGGNKSRLTLSMSVAVEFRDYLGDFIEHYAQLGPSQPPDLAQAQDEPRRALKSEFLVRENRKYYMDLKENQRGRFLRIRQTVNRGPGLGSTQGQTIALPAQGLIEFRDALAKLIDDYGVEEEPAELPEGTSLTVDNKRFFFDVGSNKYGVFMRVSEVKPTYRNSITVPYKVWAKFGHTFCKYSEEMKKIQEK”, the “soluble on expression in E. coli” value is “not soluble”. Turning to “MGHHHHHHSHRLSPRDEYKPLDLSDSTLSYTETEATNSLITAPGEFSDASMSPDATKPSHWCSVAYWEHRTRVGRLYAVYDQAVSIFYDLPQGSGFCLGQLNLEQRSESVRRTRSKIGFGILLSKEPDGVWAYNRGEHPIFVNSPTLDAPGGRALVVRKVPPGYSIKVFDFERSGLQHAPEPDAADGPYDPNSVRISFAKGWGPCYSRQFITSCPCWLEILLNNPR”, the “soluble on expression in E. coli” value was “soluble”.

For the sequence “MGHHHHHHSHRSIGLKVGLEIHQQLDTREKLFCSCPAELGEEEHDEFVRQLRPTRSELGDVDPAALFEWRKGRLYIYQAPLNHSCLVEADEEPPHPINREAVAVAVAVAKALGSAIVDEVHVMRKTVIDGSNTSGFQRTAIVALGGSIRVGSKEVPIETIVIEEDAARKVGEKGRYVVYRLDRLGIPLIEIATAPVIESPGEAREVALAIGTMLRLTGKVKRGLGTIRQDLNVSIRGGAKTEIKGVQRLELIPRVIEYEVLRQLSLLRIR”, the “soluble on expression in E. coli” value was “not soluble”. Then “MGHHHHHHSHSMGVRSMATFVKTADVSILIDPGVSLAPKRYRLPPHRIEIERMNQKWEEIKEMMKKAEVAIITHYHYDHHDPNEVEIFSGKKLLLKHPTEKINRSQKGRAAYFLEQLKSVDVEIDYCDGKSYEFGNTVVELSKPVFHGADSRLGFVVEVYVEDGKSSFLFSSDVEGPNNEEQLAFMLEKSAEVVFIDGPMTYMLGYRFSQKSFESSVENLKRLIAEDVKTLVLDH”, with “soluble”; and “MGHHHRRDTERVCIRTRKIYDWVTRQVDVPLRSFSGEDLEAIFPMDHCRREGTICDFLGAQHTNPQHLTIRCFLTDADGNPIDSVVDQDALICQEITQPNGRQSVNVTLPSGETVTLQKVKALIKGHVVVQIVSPAGTVICQSKPIPFATAQTFILCAPEGTQLNCHISFFECDTSLVCTDNFAQLDVSITLCLEVQVEADVKIEVEARFCQPREELAEAVLCPTTKFPPQCPDVFPAM”, with “not soluble”.

Turning to “MGHPRSIRSFVLRQSHMTAAQQRAIDTLWDSFGIDYQATPADLDARFGSSRPKILEIGFGMGTATAEIARRLPETDFLAIDVHGPGVGNLLKLIDENHLENIRVMRHDAVEVVENMLQDGSLDGIHIFFPDPWHKKRHHKRRLIQAPFIAKLLPKLKTGGYIHLATDWEEYAQQMLEVLSSFDSLQNTAADYAPTPDYRPETKFEARGKRLGHGVWDLVFKRIGLEHHHHHH”, the “soluble on expression in E. coli” value is “soluble”. Then “MGIFRIQAYFFALIIALFFVACDSGENFKALNSDKTYNFAYNGFEKSLKLNDKAQNFALVFFTKDCGVCKEQIPILQNLAKNYDFNIFVVLGDANDANDAKAWADEKGLSNLAMFYEKRAAKYLSSAIGEIYGVPVLSFFKEGKMDEKFIGLTPYSILEKEIKKVKS”, with “not soluble”.

With “MGIFSRFADIVNSNISALLDKAEDPEKMIRLIIQEMEDTLVEVRTNSAKAMADKKELARKVESIEQQLEDWQNKATLALTKQREDLARAALIEKQKLQHVLKGLHTEQMLVEETIEKLTGEIGKLETKITETRAKQQALAIRSQAASHRRDVQRHLHAGRTEEAMAKFEQFSRKVDELEAEADLYAQSGQARSLEQEFAELQAQDEIEKELNKLKAQMKSDQLEHHHHHH”, the “soluble on expression in E. coli” value is “soluble”. For the sequence “MGIHLFWDSRVPVGLSRPVSEELSAVLEMPVSRIDDGIFPLEGFDPVRNQYDAVKVLLKLDMFRRRMPQIFKPADMDLEFYNKFNHLHEKILLVTPGDLYEPLADFVFGLAYPKLGVAIVSPHRLQNEFYGKYADDSALIDRIVKEGAHEIGHLFGLGHCDNPGCIMYCPRNLDELDRKRKYFCGKCRVQLNGDTLEDDLFSLEHHHHHH”, the “soluble on expression in E. coli” value is listed as “soluble”.

In the case of “MGIIERIKEIEAEMARTQKNKATEYHLGQLKAKIAKLRTQLLEPPKGASGGGEGFEVTKYGHGRVALIGFPSVGKSTLLTMLTGTHSEAASYEFTTLTCIPGVIHYNDTKIQLLDLPGIIEGASEGKGRGRQVIAVAKSSDLVLMVLDASKSEGHRQILTKELEAVGLRLNKTPPQIYFKKKKTGGISFNTTAPLTHIDEKLCYQILHEYKIHNAEVLFRENATVDDFIDVIEGNRKYIKCVYVYNKIDVVGIDDVDRLSRQPNSIVISCNLKLNLDRLLARMWDEMGLVRVYSKPQGQQPDFDEPFVLSSDRGGCTVEDFCNHVHRTLVKDMKYALVWGTSTRHNPQNCGLSQHLEDEDVVQIVKKKERDEGGRGRFKSHSNAPARIADREKKAPLKQ”, the “soluble on expression in E. coli” value is “soluble”. The value for “MGIKGSKPKLSKEDLEFLKKNTNFTEEQIKEWYKGFVQDCPKGHLTKEQFIKVYKDFFPSGSAEGFCEHVFRTFDTDNSGFIDFKEFLLAINVTSSGTPEQKLEWAFRMYDIDGNGTIDEKEMIKIIEAIYEMLGPEVTKSADDSPRKRAKMIFEKMDVNNDKELTLKEFVDGCLADKELFQILTNEVKK” was “not soluble”; that for “MGILSGNPQNEPLHYGEVFDIWSYLLAAQGAIASHQVFMNHTGDEDLKKFLEGLIENDMNSEIEELKALLKINGVALPPAPPERPVASIEDIPPGARINDVEIAAAVSTGLAAGLVTCSQVMGKCLREDVGMLFGQFHMKKAQAGVTLLRLSKKKGWVVPPPLHVRNSDQA” was “not soluble”. In the case of “MGINVRAVEIQDARAIHRICIQDNVLPYMVFLPSMRVEAMENRIRNLAPNQFEFVAEYDGEVVGFVGLTQSPGRRSHSGDLFIGVDSEYHNKGIGRALLTKMLDLADNWLMLERVELGVLETNPKAKALYEKFGFVEEGVKIGNLKAHGKFINEIMMSRFRPNGLIVHNE”, the “soluble on expression in E. coli” value is given as “not soluble”. Regarding “MGITLGKKQLNKGRVSLYLNYSYNGKRRKEYLGIILDAPTSAERRAENRNKVLIARQIKAKKELEFLSVEYHLNDIENTFDDILPTDKSNVPDFYILIGQYLDTYHKKDKKMVRACITHLRLFTRKKSLPITLLTKDFCINFLEYLRDHLRGNTPIGYFKKFKMCINKCIEKKLMTSNPTDGIRLMQFDEVTKAILSLKEIQKLAITPCPNNEVKRAFLFSCYCGLRWCDVHQLQYKDIDFSSNRLTILQQKVQSHSKNAILHLNLNHTAIKLLQRHKGINEELVFGLPSYSYTL”, the “soluble on expression in E. coli” value is “not soluble”. Then “MGKDGEGDKKRETMAVMSLMKDQQNPIQQFQVKFKEIETGFKSWLSKQKLPVEAAVVTAMGGVQGAFIGGLMGTLSPEMPQAGIDPQAMASLKQTQALVGGPLVQARNFAAITGVNAGIACVMKRIRGKEDLESAVVAAFGSGVAYSLVSAGLQGQPMNAITTAAGFAVFQGVFFKLGERFSKPSVEDPYYTRGRSMLLKLGLEKYEKNFKKGLLADPTLPLLTDSALRDVSIPPGPRLLILDHIQRDPELKGKRGSRG”, with “not soluble”.

Source of the values: the DeepSol protein solubility set.
